# Measurements from the nanobody polyreactivity screen of Harvey et al. (2022).
# Test: yeast display, Sf9 membrane polyspecificity reagent, FACS + sequencing; frameworks hold sequencing errors
# Outline: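 Synthetic nanobody libraries on Saccharomyces cerevisiae BJ5465 were galactose-induced for 36–48 hours, stained 1 hour at 4 °C with 10% biotinylated, detergent-solubilized Sf9 membrane reagent and enriched on streptavidin microbeads. FACS then separated cells into low and high (top ~1%) gates by anti-HA (expression) and streptavidin (reagent binding) fluorescence. Genes were colony-PCR amplified, MiSeq 2 × 250 sequenced and CDR-length filtered. A clone's polyreactivity label is that of its gate of origin.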
row,Sequence,polyreactivity (PSR sort gate)
1,QVQLVESGGGLVQAGGSLRLSCAASGFIFAYYAMGWYRQAPGKERELVAGNSGDGSTNYADSVKGRFTISRDNAKNTVYLQMNSLKPEDTAVYYCAAATGVGLEYDYWGQGTQVTVSS,low polyreactivity
2,QVQLVESGGGLVQAGGSLRLSCAASGFIFAYYAMGWYRQAPGKERELVARITRGGRTYYADSVKGRFTISRDNAKNTVYLQMNSLKPEDTAVYYCATTGSSYFHSFEYDYWGQGTQVTVSS,low polyreactivity
3,QVQLVESGGGLVQAGGSLRLSCAASGFIFAYYVMGWYRQAPGKERELVAAISRGGGSTYYADSVKGRFTISRDNAKNTVYLQMNSLKPEDTAVYYCATYSHALRYDYWGQGTQVTVSS,high polyreactivity
4,QVQLVESGGGLVQAGGSLRLSCAASGFIFDAYAMGWYRQAPGKERELVAAISSRGGSTYYADSVKGRFTISRDNAKNTVYLQMNSLKPEDTAVYYCAAPWYQGLDYWGQGTQVTVSS,high polyreactivity
5,QVQLVESGGGLVQAGGSLRLSCAASGFIFDDNAMGWNRQAHGKERELVAAITSGGGSTYYADSVKGRFTISRDNAKNTVYLQLNSLKPEDTAVYYCNAVPSQHDEFDYWGQGTQVSVSS,low polyreactivity
6,QVQLVESGGGLVQAGGSLRLSCAASGFIFDFYTIGWYRQAPGKEWELVAAITNGGSTYYADSVKGRFTISRVNAKNTVYLQMNSLKPEDTAVYYCAAYYRSRHHGYDSWGQGTQVTVSS,low polyreactivity
7,QVQLVESGGGLVQAGGSLRLSCAASGFIFDGYAMGWYRQAPGKERELVAAIDSGGDRTYYADSVKGRFTISRDNAMNTVYLQMNSLKPEDTAVYYCAADSSDPTGYDYWGQGTQVTVSS,low polyreactivity
8,QVQLVESGGGLVQAGGSLRLSCAASGFIFDGYTMGRYRQAPGKERELVAAISRSGGRTYYADSVKGRFRISRDNAKNTVYLQMNSLKPEDTAVYYCAVRYRLYSQTVASDYGYWGQGTQVTVSS,high polyreactivity
9,QVQLVESGGGLVQAGGSLRLSCAASGFIFDGYTMGWYRQAPGKERELVAAISRSGGRTYYADSVKGRFTISRDNAKNTVYLQMNSLKPEDTAVYYCAVRYRQYSQTVASDYGYWGQGTQVTLSS,high polyreactivity
10,QVQLVESGGGLVQAGGSLRLSCAASGFIFDIYAMGWYRQAPGKERELVAAITWNSGSTHYADSVKGRITISRDNAKNTVYLQMNSLKPEDTAVYYCAADEVTYAYYPYDYWGQGTQVTVSS,low polyreactivity
11,QVQLVESGGGLVQAGGSLRLSCAASGFIFDLYAMGWSRQAPGKERELVAVISFDGGSTYYADSVKGRFTISRDNAKNTVYLQMNSLKPEDTAVYYCNTYAGLVSPSDLYDYWGQGTQVTVSS,low polyreactivity
12,QVQLVESGGGLVQAGGSLRLSCAASGFIFDNNAMGWYRQAPGKEREFVAAISGSGGSTYYADSVKGRFTISRDNAKNTVYLQMNSLKPEDTAVYYCAAPIPDYTYIYPAYDDYWGQGTQVTVSS,low polyreactivity
13,QVQLVESGGGLVQAGGSLRLSCAASGFIFDPYAMGWYRQAPGTERELVASINTRGDRTSYADSVKGRFTISRDNAKNTVYLQMNSLKPEDTAVYYCNADAVDQVGPDDDYWGQGTQVTVSS,low polyreactivity
14,QVQLVESGGGLVQAGGSLRLSCAASGFIFDQYAMGWYRQAPGKERELVATINWSGGRTYYADSVKGRFTISRDNAKNTVYLQMNSLKPEDTAVYYCAADTYRTKLHSFRTGSGYDYWGQGTQVTVSS,low polyreactivity
15,QVQLVESGGGLVQAGGSLRLSCAASGFIFDRNAMGWYRQAPGKERELVAAISVSGGNTYYADSVKGRFTISRDNAKNTVYLQMNSLKPEDTAVYYCAASRYHSTRGDYWGQGTQVTVSS,high polyreactivity
16,QVQLVESGGGLVQAGGSLRLSCAASGFIFDSYAMGWYRQAPGKERELVAAISWSGGRTYYADSVKGRFTISRDNAKNTVFLQMNSLKPEDSAVYYCAADTWFGMDYWGQGTEVTVSS,high polyreactivity
17,QVQLVESGGGLVQAGGSLRLSCAASGFIFDSYAMGWYRQAPGKERELVAAISYSAGSTSYADSVKGRFTISRDNAKNTVYLQMNSLKPEDTAVYYCNARYYPLYSNSYYSWGQGTQVTVSS,low polyreactivity
18,QVQLVESGGGLVQAGGSLRLSCAASGFIFDSYAMGWYRQAPGKESELVAAINWNGGRTYYADSVRGRFTISRDNAKNTVYLQMNSLKPEDTAVYYCNAPGIHLGYYRFGYWGQGTQVTVSS,high polyreactivity
19,QVQLVESGGGLVQAGGSLRLSCAASGFIFDSYVMGWYRQAPGKERELVAAISRRNSSTYYADSVKGRFTNSRDNAKNTVYLQMNSLKPEDTAVYYCAAKYLRAYGYWGQGTQVTVSS,high polyreactivity
20,QVQLVESGGGLVQAGGSLRLSCAASGFIFDTYAMGWYRQAPGKERELVATINDRGDSTSYADSVKGRFTISRDNAKNTVYLQMNSLKPEDTAVYYCARTWGLRYRWSYGRSRYNYWGQGTQVTVSS,low polyreactivity
21,QVQLVESGGGLVQAGGSLRLSCAASGFIFDVYAMGWYRQAPGKERELVAAISSSGGRTYYADSVKGRFTISRDNAKNTVYLQMNSLKPEDSAVYYCAAKTHSRTKVYTADYWGQGTQVTVSS,high polyreactivity
22,QVQLVESGGGLVQAGGSLRLSCAASGFIFDVYAMGWYRQAPGNERELVATISSGDSTYYADSVKGRFTISRDNAKNTVYLQMNSLKPEDTAVYYCNTTEHKYVSSFEYGYWGQGTQVTVSS,low polyreactivity

row,Sequence,polyreactivity (PSR sort gate)
1,QVQLVESGGGLVQAGGSLRLSCAASGFIFDYYAMGWYRQAPGKERELVAVINQSGTSTYYADSVKGRFTISRDNAKNTVYLQMNSLKPEDTAVYYCSVDYGTPVYWDEMYYWGQGTQVTVSS,low polyreactivity
2,QVQLVESGGGLVQAGGSLRLSCAASGFIFDYYMGWYRQAPGKERELVARISYTGGSTYYADSVKGRFTISRDNAKNTVYLQMNSLNPEDTAVYYCATRGAEAERFASYDFDYWGQGTQVTVSS,low polyreactivity
3,QVQLVESGGGLVQAGGSLRLSCAASGFIFEDYAMGWYRQAPGKERELVAAIRSNDDSTYYADSVKGRFTISRDNSKNTVYLHMNSLKPEDTAVYYCNKGLRRWSTRSHYYYWGQGTQVTVSS,high polyreactivity
4,QVQLVESGGGLVQAGGSLRLSCAASGFIFEDYAMGWYRQAPGKERELVAAITWRGGRTYYADSVKGRFTISRDNAKNTVYLQMNSLKPEDTAVYYCRPQVYSYASRYGYWGQGTQVTVLS,low polyreactivity
5,QVQLVESGGGLVQAGGSLRLSCAASGFIFEHYAMGWYRQAPGKEREMVARISWRGGSTYYADSVKGRFTISRDNAKNTVYLQMNSLKPEDTAVYYCNAQEVVYFGYYPSDYWGQGTQVTVSS,low polyreactivity
6,QVQLVESGGGLVQAGGSLRLSCAASGFIFETNAMGWYRQAPGNERELVAAISSRGGSTYYADSVKGRFTISRDNAKNTVYLQMNSLKPEDTAVYYCAAKLVVSYGQEYDYWGQGTQVTVSS,low polyreactivity
7,QVQLVESGGGLVQAGGSLRLSCAASGFIFEYYAMGGYRQAPGKERELVAAISGGGRTYYADSVKGRFTISRDNAKNTVYLQMNSLKPEDTAVYYCAAGYAYRGYWVNRITRDGYWGQGTQVTVSS,high polyreactivity
8,QVQLVESGGGLVQAGGSLRLSCAASGFIFEYYAMGWYRQAPGKERELVAAISSGGGRTYYADSVKGRFTISRDNAKNTVYLQMNSLKPEDTAVYYCAAGFYVDYQLYEYWGQGTQVTVSS,high polyreactivity
9,QVQLVESGGGLVQAGGSLRLSCAASGFIFEYYAMGWYRQAPGKERELVAAISSSGGSTYYADSVKGRFTISRDNAKITVYLQINSLKPEDTAVYYCAKDYAPSAKKLHYWGQGTQVTVSS,low polyreactivity
10,QVQLVESGGGLVQAGGSLRLSCAASGFIFFNYAMGWYRQAPGKERELVAVIDRSGGTTYYADSVKGRFTISRDNAKNTVYLQMNSLKPEDTAVYYCNADDFTYPSGWGFIYDYWGQGTQVTVSS,low polyreactivity
11,QVQLVESGGGLVQAGGSLRLSCAASGFIFFPYTMGWYRQAPGKERELVAAITNGGSTSYADSVKGRFTISRDNAKNTVYLQMNSLKPEDTAVYYCAADLGRNLLHTYYYWGQGTQVTVSS,low polyreactivity
12,QVQLVESGGGLVQAGGSLRLSCAASGFIFFQYAMGWYRQAPGKERELVAAISSGGNTYYADSVKGRFTISRDNAKNTVYLQMNSLKPEDTAVYYCAAYYPLRKGYGYWGQGTQVTVSS,high polyreactivity
13,QVQLVESGGGLVQAGGSLRLSCAASGFIFFRNAMGWYRQAPGKERELVAAISGSGGSTYYADSVKGRFTISRDNAKNTVYLQLNSLKPEDTAVYYCAAAGPFNYDYWGQGTHVTVSS,high polyreactivity
14,QVQLVESGGGLVQAGGSLRLSCAASGFIFFTNTMGWYRQAPGKEWELVAAINSNGGRTYYADSVKGRFTISRDNAKNTVYLQMNSLKPEDTAVYYCAARSVGGVARLDYWGQGTQVTVSS,low polyreactivity
15,QVQLVESGGGLVQAGGSLRLSCAASGFIFFTYAMGWYRQAPGKERELVAAISSRGGSTYYADSVKGRFTISRDNAKNTVYLQMNSLKPEDTAVYYCADRTRRRRGEYDYWGQGTQVTVSS,high polyreactivity
16,QVQLVESGGGLVQAGGSLRLSCAASGFIFGANAMGWYRQAPGKERELVAAITWSAGRTYYADSVKGRFTISRDNAKNNVYLQMNSLKPEDTAVYYCAKQRARQSPEVGYWGQGTQVTVSS,high polyreactivity
17,QVQLVESGGGLVQAGGSLRLSCAASGFIFGDNAMGWYRQAPGKERELVAAINSGSRTSYADSVKGRFTISRDNAKNTVYLQMNSLKPEDTAVYYCAAESVSSGDNASRYDYWGQGTQVTVSS,low polyreactivity
18,QVQLVESGGGLVQAGGSLRLSCAASGFIFGDNAMGWYRQAPGKERELVAGITVSDGSTYYADSVKGRFTISRDNAKNTVYLQMNSLKPEDTAVYYCNAAGRYKPGAPYDYWGQGTQVTVSS,low polyreactivity
19,QVQLVESGGGLVQAGGSLRLSCAASGFIFGDYAMGWYRQAPGKEGELVAAIRGSDSTTYYADSVKGRFTISRDNAKNTVYLQMNSLKPEDTAVYYCAAVGVVPLKKSARVYYWGQGTQVTVSS,low polyreactivity
20,QVQLVESGGGLVQAGGSLRLSCAASGFIFGDYAMGWYRQAPGKERELVAAIRGSDSTTYYADSVKGRFTISRDNAKNTVYLQMNSLKPEDTAVYYCAAVGVVPRKKSARVYYWGQGTQVTVSS,low polyreactivity
21,QVQLVESGGGLVQAGGSLRLSCAASGFIFGEYTMGWYRQAPGKEREFVAAISWSGGSTSYADSVKGRFTISRDNAKNTVYLQMNSLKPEDTAVYYCAARYGSDYDYWGQGTQVTVSS,low polyreactivity
